Here are results for two molecules from publication PMC10306287, “Computational design of the temperature optimum of an enzyme reaction” (Science Advances, 2023).

As a reminder, the Km is the substrate concentration at which the rate is half of its maximum. Usually kcat stands for the maximal rate divided by the concentration of active sites.

The target of one data set is T1, AHA (WT AHA α-amylase) (Pseudoalteromonas haloplanktis, UniProt P29957).
T1 construct: gene amy; mature peptide residues 25-477, signal peptide excluded, codon-optimised in pET-22b(+), E. coli NiCo21(DE3), HisTrap purified (tag not described)
The data set can be described thus: steady-state hydrolysis, 96-well spectrophotometer, nonlinear regression. The settings on record: 25 °C, PBS, 60 nM enzyme. The format is biochemical.

Substrate in data set [1]: O=[N+]([O-])c1ccc(O[C@H]2O[C@H](CO)[C@@H](O[C@H]3O[C@H](CO)[C@@H](O[C@H]4O[C@H](CO)[C@@H](O)[C@H](O)[C@H]4O)[C@H](O)[C@H]3O)[C@H](O)[C@H]2O)c(Cl)c1
The description is as above. The format is biochemical, Pseudoalteromonas haloplanktis. As to conditions: 25 °C, PBS, 60 nM enzyme.

Consider `O=[N+]([O-])c1ccc(O[C@H]2O[C@H](CO)[C@@H](O[C@H]3O[C@H](CO)[C@@H](O[C@H]4O[C@H](CO)[C@@H](O)[C@H](O)[C@H]4O)[C@H](O)[C@H]3O)[C@H](O)[C@H]2O)c(Cl)c1` [2-chloro-4-nitrophenyl-α-D-maltotrioside], for which, on AHA (WT AHA α-amylase), the Km turned out to be 2240 ± 220 µM.

B1: AHA (WT AHA α-amylase) (Pseudoalteromonas haloplanktis) (protein)
chain: TPTTFVHLFEWNWQDVAQECEQYLGPKGYAAVQVSPPNEHITGSQWWTRYQPVSYELQSRGGNRAQFIDMVNRCSAAGVDIYVDTLINHMAAGSGTGTAGNSFGNKSFPIYSPQDFHESCTINNSDYGNDRYRVQNCELVGLADLDTASNYVQNTIAAYINDLQAIGVKGFRFDASKHVAASDIQSLMAKVNGSPVVFQEVIDQGGEAVGASEYLSTGLVTEFKYSTELGNTFRNGSLAWLSNFGEGWGFMPSSSAVVFVDNHDNQRGHGGAGNVITFEDGRLYDLANVFMLAYPYGYPKVMSSYDFHGDTDAGGPNVPVHNNGNLECFASNWKCEHRWSYIAGGVDFRNNTADNWAVTNWWDNTNNQISFGRGSSGHMAINKEDSTLTATVQTDMASGQYCNVLKGELSADAKSCSGEVITVNSDGTINLNIGAWDAMAIHKNAKLNTSSAS
notes: mature peptide residues 25-477, signal peptide excluded, codon-optimised in pET-22b(+), E. coli NiCo21(DE3), HisTrap purified (tag not described)
With B1, in data set [1], the Km came out at 2810 ± 110 µM and the kcat was 1.775 ± 0.11 s⁻¹.
